# Reference: US8653242B2, “Therapeutic antibodies against flagellated Pseudomonas aeruginosa” (priority 2010, dated 2014)
# B1: LST-004 (antibody, V domains shown)
# VH: MNFGLSLVFLVLILKGVQCEVMLVESGGGLVKPGGSLKLSCAASGFTFSTFTMSWVRQTPEKRLECVATINGGGGNTYYPDSVKGRFTISRDNAKNNLYLQMSSLRSEDTAFYFCSRLYGIYAMDYWGQGTSVTVSS
# VL: MKSHTQVFVYMLLWLSGVEGDIVMTQSHIFMSTSVGDRVSITCKASQDVGSAVAWYQQKPGQSPKVLIYWTSTRHTGVPDRFAGSGSGTEFTLTISNVQSEDLADYFCQQYSSYPLTFGAGTKLELKR
# modifications: human IgG1 constant domains lacking entries
# What was measured:
# [1] = tested on: mixed PA27853 and Ka02 bacteria; assay: ELISA on mixed fixed bacteria; format: binding, P. aeruginosa; conditions: 1 nM mAb; wells coated with half the amount of each strain
# Protocol: (§1) From a single fresh bacterial colony, PA strains 27853 (harboring flagellin type A) or Ka02 (harboring flagellin type B) were grown overnight in 5 ml LB at 37° C. Thereafter, bacterial cultures were centrifuged at 1500 g for 30 min and following removal of the clear supernatant, pellets were washed twice with 20 ml PBS with intervening centrifugation. The final pellet was resuspended in a volume of PBS (˜10 ml) and adjusted to generate an OD600 of ˜0.2 and maintained on ice prior to coating on ELISA plates which were prepared as follows: to the wells of flat-bottomed ELISA plates (Nunc, cat #442404), 50 μl poly-L-lysine (PLL, Sigma Cat # P-1524) of a 1 μg/ml solution was added and plates were incubated for 30 min at room temperature. Thereafter, non-adsorbed PLL was removed. Fifty μl of the appropriate bacterial suspensions from the different strains at 0.2 OD600 nm were added to the PLL-coated ELISA plates. In some wells, a “mixed-bacterial population” was added. To that end, 25 μl of PA 27853 and 25 μl of Ka02 bacterial suspensions were added to the same wells. […]
# ELISA plates containing the fixed P. aeruginosa bacteria, were blocked by adding 200 μl PBS-10% FBS for 60 min at room temperature. […] Thereafter, signal was quenched with 50 μA 10% H2SO4 and plates read at 450 nm in a Microtiter plate reader (Anthos MultiRead 400). […]
# [2] = tested on: PA27853 (flagellin type A); assay: ELISA on formaldehyde-fixed PA27853; format: binding, P. aeruginosa; conditions: fixed whole bacteria ELISA, 1 nM mAb
# Protocol: as §1
# ELISA plates containing the fixed P. aeruginosa bacteria, were blocked by adding 200 μl PBS-10% FBS for 60 min at room temperature. […] Thereafter, signal was quenched with 50 μA 10% H2SO4 and plates read at 450 nm in a Microtiter plate reader (Anthos MultiRead 400).
# [3] = molecular target: P. aeruginosa flagellin type B (Pseudomonas aeruginosa, UniProt P72151); assay: ELISA of LST-009 on recombinant flagellin type B; format: binding; conditions: 250 ng/well antigen
# Protocol: Two hundred and fifty ng (250 ng) of P. aeruginosa flagellin type A or B (50 μl from 5 μg/ml) were dispensed into each well of ELISA plates (Nunc, cat #442404) and coating allowed to proceed for 2 hours at room temperature with gentle shaking. Plates were then blocked with 200 μl PBS-10% fetal bovine serum (FBS) overnight at 4° C.
# To that end, following three washes with PBS-0.05% Tween-20, 50 μl of a goat anti-human IgG (Fc)-HRP (Cat # A80-104P; Bethyl, Tex., USA) was added at a dilution of 1:10,000 in PBS-10% FBS with incubation allowed to proceed for 60 min at room temperature. Following 3 separate washes with PBS-Tween-20 (0.05%) and gentle tapping of plates on paper towels to remove final traces of wash buffer, 50 μl TMB/E substrate solution (Cat #ES001-500 ml; Millipore) was added for 15 min at room temperature. Thereafter, signal was quenched with 50 μl 10% H2SO4 and plates read at 450 nm in a Microtiter plate reader (Anthos MultiRead 400).
# Chain of P. aeruginosa flagellin type B (P72151 whole entry): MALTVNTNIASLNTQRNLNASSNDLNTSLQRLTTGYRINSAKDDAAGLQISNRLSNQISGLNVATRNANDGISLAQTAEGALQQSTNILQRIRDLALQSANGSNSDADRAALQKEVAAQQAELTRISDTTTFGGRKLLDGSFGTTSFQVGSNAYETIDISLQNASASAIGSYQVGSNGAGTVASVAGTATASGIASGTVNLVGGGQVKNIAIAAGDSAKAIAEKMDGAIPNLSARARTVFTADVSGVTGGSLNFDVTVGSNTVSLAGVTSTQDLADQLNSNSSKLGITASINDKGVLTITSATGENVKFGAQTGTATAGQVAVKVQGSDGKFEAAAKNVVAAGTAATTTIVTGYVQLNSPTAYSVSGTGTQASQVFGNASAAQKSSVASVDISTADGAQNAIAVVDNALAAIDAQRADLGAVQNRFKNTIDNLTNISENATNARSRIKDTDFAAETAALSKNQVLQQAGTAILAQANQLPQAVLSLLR
molecule,measurement,setting,value
B1,OD as compared to FIG. 16 (full amount of bacteria),[1],approximately 50%
same,binding to PA27853,[2],minimal signal
same,EC50 towards P. aeruginosa flagellin type B,[3],approximately 300 ng/ml
